Here are results for one protein from article PMC6826200, “An oligomeric state‐dependent switch in the ER enzyme FICD regulates AMPylation and deAMPylation of BiP” (The EMBO Journal, 2019).

By Kd is commonly meant the concentration at which binding is half-saturated.

The data set concerns the molecule itself. The data set is described as follows: AUC; fluorescence-detected sedimentation velocity; Oregon Green-labelled FICD from 1.6 μM to 31 pM; 50 mM HEPES-KOH pH 7.4, 150 mM KCl, 10 mM MgCl2, 1 mM CaCl2, 0.3 mM TCEP, 0.1% Tween-20, 0.15 mg/ml BSA; 45,000 rpm, 20°C; monomer-dimer isotherm of signal-averaged s; dimer to monomers.

B1: Oregon Green-labelled FICD^NC (wild-type FICD carrying an N-terminal cysteine) (domain or fragment, human)
chain: CLEARAALNQALEMKRQGKREKAQKLFMHALKMDPDFVDALTEFGIFSEEDKDIIQADYLYTRALTISPYHEKALVNRDRTLPLVEEIDQRYFSIIDSKVKKVMSIPKGNSALRRVMEETYYHHIYHTVAIEGNTLTLSEIRHILETRYAVPGKSLEEQNEVIGMHAAMKYINTTLVSRIGSVTISDVLEIHRRVLGYVDPVEAGRFRTTQVLVGHHIPPHPQDVEKQMQEFVQWLNSEEAMNLHPVEFAALAHYKLVYIHPFIDGNGRTSRLLMNLILMQAGYPPITIRKEQRSDYYHVLEAANEGDVRPFIRFIAKCTETTLDTLLFATTEYSVALPEAQP
modifications: Oregon Green 488 on the N-terminal cysteine (labelling efficiency 74%)
notes: N-terminal cysteine added for site-specific labelling; FICD (HYPE), human, residues 104-445; also called UK 2339; source: E. coli, purified, labelled with Oregon Green 488-iodoacetamide, SEC
As to B1, the Kd turned out to be 1.2 nM.
